Results from patent US9370555B2, “Surfactant protein D for the treatment of disorders associated with lung injury” (priority 1998, dated 2016).
Entries after “also recorded” stand apart in the source; their conditions may differ.

Columns and labels:
[1] = Ultrastructure of surfactant mixtures (electron micrographs); format: physicochemical; conditions: SURVANTA mixed with buffer or rhSP-D
Experimental: (§1) Surface tension was measured by captive bubble surfactometer (Schoel M, et al. The captive bubble method for the evaluation of pulmonary surfactant: surface tension, area, and volume calculations. Biochim Biophys Acta 1994; 1200:281-290) on 3 μL of samples containing 15 μg/μL […]® and 2% rhSP-D or buffer in the presence or absence of surfactant inhibitor (21 μg/μL plasma protein) (Ikegami M, et al. Characteristics of surfactant from SP-A deficient mice. Am J Physiol Lung Cell Mol Physiol 1998; 275:L247-L25). This amount of plasma protein relative to […]® was 30% lower than the concentration that is known to inhibit the activity of […]® in the ventilated premature newborn lamb lung in vivo (Wada K, et al. Tidal volume effects on surfactant treatment responses with the initiation of ventilation in preterm lambs. J Appl Physiol 1997; 83:1054-1061). The influence of rhSP-D on the ultrastructure of […]® was studied as previously described (Schmiedl A, et al. Influence of plasma and inflammatory proteins on the ultrastructure of exogenous surfactant. J Electron Microsc (Tokyo) 2004; 53:407-416).

[2] = Surface tension by captive bubble surfactometer; format: physicochemical; conditions: 15 μg/μL SURVANTA with 2% rhSP-D or buffer
Experimental: as §1

premature lambs [3] = assay: Pulmonary inflammation in ventilated premature lambs (BALF cells, NE activity, cytokine mRNA and protein, flow cytometry); format: in vivo, sheep
Experimental: A five hour study period was chosen to detect changes in proinflammatory cytokine mRNAs induced by initial ventilation (Naik A S, et al. Effects of ventilation with different positive end-expiratory pressures on cytokine expression in the preterm lamb lung. Am J Respir Crit Care Med 2001; 164:494-498). After five hours, lambs were ventilated with FiO2=1 for five minutes, then given 100 mg pentobarbital intravascularly, after which the endotracheal tube was clamped to permit oxygen absorption atelectasis (Ikegami M, et al. Intratracheal recombinant surfactant protein D prevents endotoxin shock in the newborn preterm lamb. Am J Respir Crit Care Med 2006; 173:1342-1347; Ikegami M, Jobe A. Postnatal lung inflammation increased by ventilation of preterm lambs exposed antenatally to E. coli endotoxin. Pediatr Res 2002; 52:356-362). After the thorax was opened, the deflation limb of pressure-volume curve was measured (Kramer B W, et al. Surfactant protein A recruits neutrophils into the lungs of ventilated preterm lambs. Am J Respir Crit Care Med 2001; 163:158-165; Ikegami M, et al. Intratracheal recombinant surfactant protein D prevents endotoxin shock in the newborn preterm lamb. Am J Respir Crit Care Med 2006; 173:1342-1347). Lung tissue of the right lower lobe was frozen in liquid nitrogen for RNA isolation and measurement of neutrophil elastase (NE) activity (Lowry O H, et al. Protein measurement with the Folin phenol reagent. J Biol Chem 1951; 193:265-275; Watterberg K L, et al. Secretory leukocyte protease inhibitor and lung inflammation in developing bronchopulmonary dysplasia. J Pediatr 1994; 125:264-269). NE is a potent serine proteinase, responsible for tissue destruction in the adult lung with emphysema (Shapiro S D, et al. Neutrophil elastase contributes to cigarette smoke-induced emphysema in mice. Am J Pathol 2003; 163:2329-2335). In the preterm newborn lung, increased NE activity affects lung remodeling and increases alveolar epithelial apoptosis and the development of BPD (Watterberg K L, et al. Secretory leukocyte protease inhibitor and lung inflammation in developing bronchopulmonary dysplasia. J Pediatr 1994; 125:264-269; Yasumatsu R, et al. SERPINB1 upregulation is associated with in vivo complex formation with neutrophil elastase and cathepsin G in a baboon model of bronchopulmonary dysplasia. Am J Physiol Lung Cell Mol Physiol 2006; 291:L619-L627). NE activity was assessed by a spectrophotometric assay using a chromogenic substrate specific for NE, N-methoxy-succinyl-Ala-Ala-Pro-Val pNA (Yasumatsu R, et al. SERPINB1 upregulation is associated with in vivo complex formation with neutrophil elastase and cathepsin G in a baboon model of bronchopulmonary dysplasia. Am J Physiol Lung Cell Mol Physiol 2006; 291:L619-L627).
; Lung tissue of the right middle lobe was homogenized in 0.9% NaCl and supernatant after centrifugation at 1,000×g for 15 minutes and frozen for ELISA of proinflammatory cytokine proteins (Kramer B W, et al. Surfactant protein A recruits neutrophils into the lungs of ventilated preterm lambs. Am J Respir Crit Care Med 2001; 163:158-165; Ikegami M, et al. Intratracheal recombinant surfactant protein D prevents endotoxin shock in the newborn preterm lamb. Am J Respir Crit Care Med 2006; 173:1342-1347). BALF was recovered from the left lung (Ikegami M, et al. Whitsett J A. Intratracheal recombinant surfactant protein D prevents endotoxin shock in the newborn preterm lamb. Am J Respir Crit Care Med 2006; 173:1342-1347) for further analyses. Total proteins were analyzed (Lowry O H, et al. Protein measurement with the Folin phenol reagent. J Biol Chem 1951; 193:265-275) in the supernatant of BALF after 10 minutes of centrifugation at 284×g. The right upper lobe was inflation-fixed at 30 cm H2O for morphology (Ikegami M, et al. Surfactant protein-D regulates the postnatal maturation of pulmonary surfactant lipid pool sizes. J Appl Physiol 2009; 106:1545-1552). […]

premature lambs [4] = assay: Lung function and morphology in ventilated premature lambs; format: in vivo, sheep
[5] = CD45-positive cells from BALF, flow cytometry
[6] = premature lambs, five hours of ventilation, +rhSP-D vs control
[7] = premature lambs, mean levels decreased by rhSP-D

B1: rhSP-D: recombinant human surfactant protein D, given mixed with SURVANTA to premature lambs (protein, UniProt P35247 21-375, looked up)
Pulmonary …: AEMKTYSHRTMPSACTLVMCSSVESGLPGRDGRDGREGPRGEKGDPGLPGAAGQAGMPGQAGPVGPKGDNGSVGEPGPKGDTGPSGPPGPPGVPGPAGREGPLGKQGNIGPQGKPGPKGEAGPKGEVGAPGMQGSAGARGLAGPKGERGVPGERGVPGNTGAAGSAGAMGPQGSPGARGPPGLKGDKGIPGDKGAKGESGLPDVASLRQQVEALQGQVQHLQAAFSQYKKVELFPNGQSVGEKIFKTAGFVKPFTEAQLLCTQAGGQLASPRSAAENAALQQLVVAKNEAAFLSMTDSKTEGKFTYPTGESLVYSNWAPGEPNDDGGSEDCVEIFTNGKWNDRACGEKRLVVCEF
ultrastructure of surfactant [1]: causing the formation of lipid aggregates and multilayers; also recorded: from simple lipid layers to the mixture of multiple lipid layers and lipid aggregates | minimum surface tension ([2]; absence of plasma protein): low | minimum surface tension ([2]; presence of surfactant inhibitor (21 μg/μL plasma protein)): remaining low; also recorded: low minimum surface tension in the presence of plasma protein | expression of CD11b (premature lambs [3]; [5]): did not influence expression | expression of CD44 (premature lambs [3]; [5]): did not influence expression | proteins in BALF (premature lambs [3]; premature lambs, +rhSP-D group, control group 60±7): 57 ± 11 mg/kg | lung inflammation (premature lambs [3]; premature lambs, five hours of ventilation): decreased in all the lambs treated with rhSP-D | neutrophils in BALF (premature lambs [3]; [6]): significantly decreased; also recorded: suppressed | total inflammatory cell numbers in BALF (premature lambs [3]; [6]): significantly decreased; also recorded: suppressed | IL-1β protein in the lung (premature lambs [3]; premature lambs, ELISA): not significantly influenced | IL-8 protein in lung homogenates (premature lambs [3]; premature lambs, ELISA, +rhSP-D vs control): significantly decreased | IL-1β mRNA in the lung (premature lambs [3]; premature lambs, RT-PCR): not significantly influenced; also recorded: generally lower | IL-8 mRNA in the lung (premature lambs [3]; premature lambs, RT-PCR, +rhSP-D vs control): significantly decreased; also recorded: significantly suppressed | TNF-α mRNA expression (premature lambs [3]; premature lambs, data not shown): similarly present at low levels in both groups | KC mRNA in the lung (premature lambs [3]; [7]): not significantly different; also recorded: generally lower | MCP1 mRNA in the lung (premature lambs [3]; [7]): not significantly different; also recorded: generally lower | IL-6 mRNA expression in the lung (premature lambs [3]; premature lambs, mean, P=0.06, not statistically significant): generally lower | IL-6 protein in the lung (premature lambs [3]; premature lambs, mean, P=0.1, not statistically significant): lower | neutrophil elastase (NE) activity in the lung (premature lambs [3]; premature lambs, rhSP-D added to SURVANTA vs control, P<0.05): decreased NE activity | mean PIP required to regulate VT at 8 to 9 ml/kg (premature lambs [4]; premature lambs after surfactant at 20 minutes of age, same for controls): 27 cm H2O | Po2/Fio2 (premature lambs [4]; premature lambs, 7 mg rhSP-D mixed with SURVANTA 100 mg/kg vs SURVANTA+buffer control, P<0.01): higher | alveolar fluid (premature lambs [4]; premature lambs, +rhSP-D vs control): More fluid was noted in alveoli of the control lambs; also recorded: More alveolar fluid was observed in control lambs | modified ventilation index (MVI) (premature lambs [4]; premature lambs, +rhSP-D vs control, after 240 minutes, not statistically significant): tends to be better (lower) | deflation limb of pressure-volume curves (premature lambs [4]; premature lambs, +rhSP-D vs control, after five hours): not different
